# Measured values from article doi:10.1101/2021.05.20.444958.
# Test system: His6-DnaA (Escherichia coli K-12?)
# Experiment: EMSA
substance,measurement,value
"iraD upstream region, 672 bp",Kd,42 nM
